Data on 22 sequences can be found in a protein production outcome set (Wang et al. 2014).

The data set can be described thus: label from the status in PepcDB records.

On to “MADQGLEESNPMDLSKHPSGIVPTPHSQVIYKMPPRIAAIRLVSSHREVYEPCDDSFALVDALLADRTNLIEHNPKICMEIGCGSGYVITSLILLLQNEVPGVHYLAIDTNPIATRVTKETLEAHGVNADVICADLATGLEKRLAGSVDVIVVNPPYVPTPEYEVGMEGIASAWAGGENGRTVIDKILPVVDLLLSEKGWFYLVTLTSNFPAEICLMMRKKGYASRIVVQRSTEEENLVILKFWRDKDEESQDKETSSSSFVSQFSKSLSSLMEKQWR”, for which the protein production entry is recorded as “failed”.
For “MADQNRSEEKTVKSPNVFERVKEEIEAMGHHEKSKSRHHDKETHGTSDDIDESTPIDYVKGPGFFQRLKEEIEAIFNAVTPKRSSKK”, the protein production entry is reported as “failed”.
On to “MADTHPLVTVETIVLVGLGGFAGSNLRYFVGLFFPGLQGTLLVNVCGSFALGVLVYEGLQVGALASETKLAASTGFISSFTTYSTFAVETVLTPEWAVANVVGSYALGFAGVLVGREVVRLFAGGGQ”, for which the protein production result is given as “failed”.
The result for “MADTITVSIVLAYFVVTLALGFFAARKIKTAEHYYGARKLFGMFVTAVAVFSGIASAFTFIGGPGLVYPMGGTVNWVIWTPVISMPLIWYLLGKRIKLITEARPVATLPDLTAARFKSDAVRFLTAVALIFGIITYLAGNVMGAGLVLTDMLGTPLELSIAIVFGIIMLYTAFGGMVASILTDFFQGLVMMVAAIIFVVFILIMTGGVENLFATIAESNPRHIDPIGVGPIWLGIMGWWWALNIGSSVQPHAVTKFFALKDYRDLKWGALVTTIAWTLACLMWFFGGYASVWVVIKGLAEAPARSDQAIFGVIAQMPVVLKAVIYAGVLAAIMSTVSGFISMGTAAVVRDIPTAIGKSLSQRGQILWGRVVTVILTVVAALFGYYGGYVVGILVTLGLGYFASMLFPLLVIGLNWKRATKEAAIITTALTVAMNLGFLVYEKVLSMSLPYGLPGYGVTFAVGIITMVLVSLITKGAALDDMDEDIRAAMSL” reads “failed”; that for “MADTRPERRFTRIDRLPPYVFNITAELKMAARRRGEDIIDFSMGNPDGATPPHIVEKLCTVAQRPDTHGYSTSRGIPRLRRAISRWYQDRYDVEIDPESEAIVTIGSKEGLAHLMLATLDHGDTVLVPNPSYPIHIYGAVIAGAQVRSVPLVEGVDFFNELERAIRESYPKPKMMILGFPSNPTAQCVELEFFEKVVALAKRYDVLVVHDLAYADIVYDGWKAPSIMQVPGARDVAVEFFTLSKSYNMAGWRIGFMVGNKTLVSALARIKSYHDYGTFTPLQVAAIAALEGDQQCVRDIAEQYKRRRDVLVKGLHEAGWMVEMPKASMYVWAKIPEPYAAMGSLEFAKKLLNEAKVCVSPGIGFGDYGDTHVRFALIENRDRIRQAIRGIKAMFRADGLLPASSKHIHENAE”, “failed”; that for “MADTSPSACLVFQGSGFYAKLSDFRACLTGFMLPLSPSLLPTLAAAVLYAAATFYQGSRLATGAKANKRLLVTLGILALLAHAASLLTHLLTPVGLGLDFFSAASLIAAAVIALTLLACWRIPVENLLVLLFPLGALTALLAQFVPTGTVPVIDEEPGILAHILLSILAYGMFTIAVFQALLLLVQDHQLKNKHPSGLIRNFPPLQTMESLLFGFLWAGWTLLSLSLISGWLFVENLFAQHLVHKTLLACLAWVVFSVLLWGRNRLGWRGHKAIRWTLAGFCLLMLAYFGSKLVREYILHI”, “failed”.
With “MADYNNAVVFYDTSGIEYSKQIKKTLERGFERECFLINLDNRENTLSRLNLAMKTSKYVIFLFSSMYSNENMLDEAKTAFNSDKHIISLKLDDPELKKQISIHQSEFEDNYGLSKKVNDEVEKLKKMEKKGTDFVESQISFNMGNIYFNFGKYAEAIRCYKKAVKIIPDFVDALHNFNSLSNMNLFDMGEEPKKPVLYKDVTIDELVPDIFSNTVQKEPEEPQKYSELEPEELEDLILDGEIGENLEEIGSEDELTEKIDDKLPEIDESKDKSKAQPEDELNETFEEGIEYETFEVIDAEEKNEISDENLEISSLEPEFEEKSIFKLEKETEQPELEENLEPVLEVPEELVEDVEILDASEEDIEKELENQEVIIEEKLETLDELLDKSELESELVEEHTYEIDNNEFLEILSFANTLYESGDFEAAKTEYKKAIALNPGNSEVHNHYGCLLEYLEKYGEAEIEFKKAVALDGSNSKAYNNLATFLAKSEKYDEAEEHYKKAIEIAPDYWAAIYNLAAMYAALKRYDEAVAQVKSMVKIFRSDGNIKEVLELKKLIKHLKKLKIQKS”, the protein production result is “failed”.
As for “MAEARRDGRLPLTLVGGFLGAGKSTWLRHQLHAGRFARHHLLVNEAAETPVDNLLLGGAARLTLLAGGCACCEGQAQLRAALRAICETESGPEAGGIEGILLETSGLADPGAIAAMVAADPVLVRRLALAETLVLVDAAHGTAQLAAEPLARAQIEAAGRLVLTKPAAAPDLARLAATLRALAPEAELSAAERGVPVPLPAGAAEPYPLPPLAAAAPIRPHRLRIGAEGGWVALSTWLSALLQARGEDVVRVKGVVRTPAGRLLLQSVRRMVQPPETLPEGADLPGPAPPPRRERSC”, the protein production result is reported as “failed”.
On to “MAEDEIVVEEEQSQPQEITPVPPSSSSSPSLVVEDDDEMKLKHLEFIQVAAVYFAACFSTLYELAKDNAGPLKLGVENIEDCVRTVLAPLYEKFHDVPFKLLLFVDRKVDDVFFDVETYVPSLVKQASSQALTVATEVQRTGVVDTTKSIARSVRDKYEPAAEYYAATLWRLLNQLPLFPEVAHLVIPTAFYWSEKYNDAVRYVGDRDYFGAEYLPMIPIEKISDILEQDQCRAD”, for which the protein production entry is given as “failed”.
In the case of “MAEDTYEEECDYLFKAVLIGDSAVGKSNLLSRFSKDEFRFDSKPTIGVEFAYRNVHVGDKIIKAQIWDTAGQERFRAITSSYYRGALGALLIYDITRRTTFDNIKKWLFELRDFANPETVVVLVGNKSDLRQSREVEEDEGKTLAESEGLYFLETSALENVNVEEAFLVMIGRIHEVVTQRIASENKSNGAATPHINGNGNGTVLPVGKEIVNIHEVTATQPLLSSSSNCCFK”, the protein production entry is “failed”.
Take “MAEELDDLTKFEAKGTSHHLPVGWLALFWGLIVFGAYYYWAYSPALGGWSQAKDLETGGASSGANLLWTIAFTAVPALVAIWMGLTQKKKAR”: the protein production result was “failed”.
As to “MAEELLAPEVIADLKARAISQPLVEHIYTADPSAHVFNGKIYIYPSHDIEAGIPFNDNGDHFGMEDYHVISLDSPDSPAVDNGVALHVKDVAWAERQMWPPDAAHKNGKYYLYFPAKRANGIFQIGVAVGDSPIGPFKAEPEAIKGSYSIDPAVFEDNDGEYYMYYGGIWGGQLQNYRNNQYDANRGEPADNEPALGPIVARLTADMKEFAEAPREIQILDQDGKPLLAGDHDRRFFEASWVHKYNDQYYFSYSTGNTHFLCYATGDNPYGPFTYRGQILTPVIGWTTHHSIAEYQGQWYLFYHDCVLSKGITHLRSVKMAPLTHKADGSIETITPYRD”, the protein production result is “failed”.
For “MAEFLHRFAQGFAALNKDNLDQVAELYSEDVSFSDPMHDIHGLAAMQRYFAELYANVRDLHFDFHAFDEVRPGEGYLVWTMSYSHPRLAGGRTIRVEGCSHLKWRDKVYRHRDYFDAGALLYEHLP” the value was “failed”; for “MAEFTHLVNERRSASNFLSGHPITKEDLNEMFELVALAPSAFNLQHTKYVTVLDQDVKEKLKQAANGQYKVVSSSAVLLVLGDKQAYQQAADIYEGLKVLGILNKQEYDHMVQDTVSFYENRGEQFKRDEAIRNASLSAMMFMLSAAAAGWDTCPMIGFDAEAVKRILNIDDQFEVVMMITIGKEKTESRRPRGYRKPVNEFVEYM”, “not failed”.
On to “MAEHAPHFTITPLGGLGEIGLNCQVWSTADSTVLIDCGLMFPDDYHLGVDVVIPRFDHILQQRDKVRGIILTHGHEDHIGALPWLVPHLRGIPIFGSRFTLALVEHKLREHGLADRVEFVPVTPGTPLALGDMTFHFLPVCHSIIEGYAVGVETPVGRVLHTGDFKIDPHPLEGSGTDLDLFRSFAGDEGVRLLLSDSTNIEREGHSLPEREILSSFRHIFTEAQGRIVITLFSSHIQRIQEVFDLAAEFGRTVVVSGRSLMTNIELAREHGFLRVPPALHMDAAGLPPVADRDMVLLVTGSQGEPLSALSRITMGEHKHLTIHEGDTVVMSSRIIPGNARAITRLINQIYRLGAEVYYDKFRAIHASGHAHRDELRAMIETMRPQCFVPVHGEYRHLVKHARLAQECGVAPERAFILENGDPLTLLPQGVRLGERIHVESILVDGKGVGDVGHSVLKERHILGGEGMVIVVLVVDEVTWDVLHGPEMLSKGFVFEQHYNHVLEDAKCIVLDIFENIPPGETERLQDRIRSALRRFFRKVLERDPIVVPVITTI”, for which the protein production result is reported as “failed”.
For “MAEHIITLVLSGERLDVTTSTPFVVALRDLLYEGDWELLKEDMKKKENIMKEVQTCEKLEKVVHLDETVYEPLIFPEFQEWLREENITPKDFKNVSLKGLYDLALEYADRNLYDIAHDIIKFMLDIDENYAPAYELKGSLLVEQGKIEEGIKFLDKAVEIDPWLVQAYASLGEAYYNLGDYEKAIHYWERELEYNPNDKITYFMITEAYYEMNRKDLAVKTLERLLEIDPDNIPALYQLSQLYRELGNEEKAREMEEKIMNCKPKYPTELEPWARVMLKHGRYKEVAEELEKIVESSPLNTLARLLLVVPYVKLGQIDKAREILDDIGQSNFWYYYGKKEILDELLTEEEKRACGIS” the value was “failed”; for “MAEILRAENIKKVIRGYEILKGISLSVKKGEFVSIIGASGSGKSTLLYILGLLDAPTEGKVFLEGKEVDYTNEKELSLLRNRKLGFVFQFHYLIPELTALENVIVPMLKMGKPKKEAKERGEYLLSELGLGDKLSRKPYELSGGEQQRVAIARALANEPILLFADEPTGNLDSANTKRVMDIFLKINEGGTSIVMVTHERELAELTHRTLEMKDGKVVGEITRV”, “not failed”.
Consider “MAEKLLHTAESDAGIGSWVLHMESGRLEWSQAVHDIFGTDSATFDATEDAYFQRVHPDDRARVRRELDRHVLGDRPFDVEYRIVRPDGQVRELLERNHIQRQASGQVDHLWGTVIDMTEHKQ”, for which the protein production entry is “not failed”.
The result for “MAEKNAYTVAQLADEYFERMIAGRWKHPNIVRSRIEKDIKPAIGSLKVEDVKPRHIDDVLKAVMKRGAPSIANDTLRWLKRMFNYAIKRHIIEYNPAAAFDPGDAGGKEKSLEHHHHHH” reads “not failed”.
As to “MAEKSCSLTEFVGTAIGDTLGLVIANVDTALLDAMKLEKRYRSIGILGARTGAGPHIMAADEAVKATNTEVVSIELPRDTKGGAGHGSLIILGGNDVSDVKRGIEVALKELDRTFGDVYGNEAGHIELQYTARASYALEKAFGAPIGRACGIIVGAPASVGVLMADTALKSANVEVVAYSSPAHGTSFSNEAILVISGDSGAVRQAVTSAREIGKTVLATLGSEPKNDRPSYI”, the protein production result is recorded as “not failed”.
As to “MAENAWVRVCALQELPELGARVLDVEGLPPIAIFRTASDQVFALRDRCPHKGGPLSQGIVAGETVTCPLHGWAIALQSGQACAPDVGCAPRYPVKVEAGAVWIVLQPVLQADAVAEPAALEHHHHHH”, the protein production result is reported as “failed”.
“MAENKLGRDIPRKYANQYGVFEGELAHIKSYKESSRQVKPVKPSDDKLLSSIHEAIEKTRLKDGMTISFHHHFREGDYVMNMVLDEIAKMGIKDISIAPSSIANVHEPLIDHIKNGVVTNITSSGLRDKVGAAISEGIMENPVIIRSHGGRARAIATDDIHIDVAFLGAPSSDAYGNANGTRGKTTCGSLGYAMIDAKYADQVVIVTDTLVPYPNTPISIPQTDVDYIVVVDAIGDPEGIAKGATRYTKNPKELLIAEYAAKVITSSPYYKEGFSFQTGTGGASLAVTRFMREQMIKDDIKANFALGGITNAMVELLEEGLVDKILDVQDFDHPSAVSLDRNAEKHYEIDANMYASPLSKGSVINQLDICVLSALEVDTNFNVNVMTGSDGVIRGASGGHCDTAFAAKMSLVISPLVRGRIPTFVDKVNTVITPGTSVDVVVTEVGIAINPNRPDLIEYFKDLKVPQLTIEELKEKAYAIVGNPQPIQYGDKIVALIEYRDGSLIDVVRNVLEHHHHHH”: the protein production result is “not failed”.
